In patent US20240201167A1 (ALBERT EINSTEIN COLLEGE OF MEDICINE, published 2024):
Where a chain is given by its changes, count along the chain named.

B1: human p75 neurotrophin receptor, full length, expressed on HEK 293 cells (receptor)
chain: KEACPTGLYTHSGECCKACNLGEGVAQPCGANQTVCEPCLDSVTFSDVVSATEPCKPCTECVGLQSMSAPCVEADDAVCRCAYGYYQDETTGRCEACRVCEAGSGLVFSCQDKQNTVCEECPDGTYSDEANHVDPCLPCTVCEDTERQLRECTRWADAECEEIPGRWITRSTPPEGSDSTAPSTQEPEAPPEQDLIASTVAGVVTTVMGSSQPVVTRGTTDNLIPVYCSILAAVVVGLVAYIAFKRWNSCKQNKQGANSRPVNQTPPPEGEKLHSDSGISVDSQSLHDQQPHTQTASGQALKGDGGLYSSLPPAKREEVEKLLNGSAGDTWRHLAGELGYQPEHIDSFTHEACPVRALLASWATQDSATLDALLAALRRIQRADLVESLCSESTATSPV
notes: Full-length human p75 with a cytosolic fluorescent tag (GFP); also called p75NTR; NGFR
B2: ICOSL expressed on cells (ligand, human, UniProt O75144 19-302, looked up)
chain: DTQEKEVRAMVGSDVELSCACPEGSRFDLNDVYVYWQTSESKTVVTYHIPQNSSLENVDSRYRNRALMSPAGMLRGDFSLRLFNVTPQDEQKFHCLVLSQSLGFQEVLSVEVTLHVAANFSVPVVSAPHSPSQDELTFTCTSINGYPRPNVYWINKTDNSLLDQALQNDTVFLNMRGLYDVVSVLRIARTPSVNIGCCIENVLLQQNLTVGSQTGNDIGERDKITENPVSTGEKNAATWSILAVLCLLVVVAVAIGWVCRDRCLQHSYAGAWAVSPETELTGHV
notes: whole, on cells
B3: chimeric human-mouse B7-1 protein expressed on HEK 293 cells (ligand)
chain: VIHVTKEVKEVATLSCGHNVSVEELAQTRIYWQKEKKMVLTMMSGDMNIWPEYKNRTIFDITNNLSIVILALRPSDEGTYECVVLKYEKDAFKREHLAEVTLSVKADFSTPNITESGNPSADTKRITCFASGGFPKPRFSWLENGRELPGINTTISQDPESELYTISSQLDFNTTRNHTIKCLIKYGDAHVSEDFTWEKPPEDPPDSKNTLVLFGAGFGAVITVVVIVVIIKCFCKHRSCFRRNEASRETNNSLTFGPEEALAEQTVFL
notes: also called human-mouse chimera B7-1-GFP; h:mB7-1
B4: p75NTR-mIgG2a (Fc fusion)
chain: KEACPTGLYTHSGECCKACNLGEGVAQPCGANQTVCEPCLDSVTFSDVVSATEPCKPCTECVGLQSMSAPCVEADDAVCRCAYGYYQDETTGRCEACRVCEAGSGLVFSCQDKQNTVCEECPDGTYSDEANHVDPCLPCTVCEDTERQLRECTRWADAECEEIPGRWITRSTPPEGSDSTAPSTQEPEAPPEQDLIASTVAGVVTTVMGSSQPVVTRGTTDN
notes: Full-length ectodomain; also called p75-mIgG2A; recombinant p75 mIgG2a; not shown: C-terminal mIgG2a-His10 Fc domain
B5: HVEM expressed on cells (receptor, human, UniProt Q92956 39-283, looked up)
chain: LPSCKEDEYPVGSECCPKCSPGYRVKEACGELTGTVCEPCPPGTYIAHLNGLSKCLQCQMCDPAMGLRASRNCSRTENAVCGCSPGHFCIVQDGDHCAACRAYATSSPGQRVQKGGTESQDTLCQNCPPGTFSPNGTLEECQHQTKCSWLVTKAGAGTSSSHWVWWFLSGSLVIVIVCSTVGLIICVKRRKPRGDVVKVIVSVQRKRQEAEGEATVIEALQAPPDVTTVAVEETIPSFTGRSPNH
notes: whole, on cells

Experiments:
human B7-1 N82E on cells = molecular target: T1, human B7-1 N82E on cells (Homo sapiens, UniProt P33681 35-280); assay: cell-cell binding, flow cytometry; percent of the wild-type pair
T1 construct: C-terminally fused to mCherry; also called ASN82 GLU
T1 chain: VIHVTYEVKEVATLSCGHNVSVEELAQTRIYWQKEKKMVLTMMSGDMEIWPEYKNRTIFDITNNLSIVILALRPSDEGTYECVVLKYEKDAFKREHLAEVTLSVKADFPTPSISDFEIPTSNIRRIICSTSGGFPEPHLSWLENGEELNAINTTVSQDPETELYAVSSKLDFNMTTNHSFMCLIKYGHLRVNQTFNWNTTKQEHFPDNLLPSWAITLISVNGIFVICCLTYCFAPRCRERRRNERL

[1] = molecular target: T2, human B7-1 K139D on cells (Homo sapiens, UniProt P33681 35-280); assay: as above
T2 construct: mCherry-tagged point mutant; also called LYS139ASP; LYS139 ASP
T2 chain: T1 chain with E48N, K105D

human B7-1 R63D on cells = molecular target: T3, human B7-1 R63D on cells (Homo sapiens, UniProt P33681 35-280); assay: as above
T3 construct: mCherry-tagged point mutant; also called ARG63 ASP
T3 chain: T1 chain with R29D, E48N

[2] = molecular target: T4, human B7-1 K120D on cells (Homo sapiens, UniProt P33681 35-280); assay: as above
T4 construct: mCherry-tagged point mutant; also called LYS120 ASP
T4 chain: T1 chain with E48N, K86D

[3] = molecular target: T5, human B7-1 K127D on cells (Homo sapiens, UniProt P33681 35-280); assay: as above
T5 construct: mCherry-tagged point mutant; also called LYS127 ASP
T5 chain: T1 chain with E48N, K93D

[4] = molecular target: human B7-1 (CD80), full length, expressed on HEK 293 cells (Homo sapiens) (UniProt P33681); assay: as above
[5] = molecular target: T6, human B7-1 (CD80), full length, expressed on HEK 293 cells (Homo sapiens, UniProt P33681 35-280); assay: as above
T6 construct: also called hB7-1; B7-1-mCherry
T6 sequence: T1 chain with E48N

[6] = molecular target: T7, protein tyrosine phosphatase receptor type F expressed on cells (human, UniProt P10586 30-1907); assay: cell-cell screen, flow cytometry
T7 construct: whole, on cells; also called PTPRF; PTPRF mCherry
Procedure: (§1) As illustrated, cells were transfected with expression cassettes expressing labeled receptors or labeled ligands, receptor-expressing cells were mixed with ligand-expressing cells and cell-to-cell binding was monitored by detecting the labels associated with the receptor and the ligand. […] Binding was detected using an anti-mIgG2A ab and flow cytometry. The binding curves were fit and the Bmax, EC50, and hill coefficient were calculated using the equation Y=Bmax*Xh/(Kdh+Xh).

[7] = molecular target: B1; assay: cell-cell screen, flow cytometry
Procedure: as §1

p75NTR-mIgG2a = molecular target: B4; assay: Fc fusion on cells expressing chimera B7-1-GFP, flow cytometry
Procedure: (§2) The arrow identifies the swapped exons. […] Binding was assessed using an anti mIgG2a-647 labeled antibody and flow cytometry.

mouse CTLA-4-mIgG2a = molecular target: T8, mouse CTLA-4-mIgG2a (mouse, UniProt P09793 36-161); assay: as above
T8 construct: not shown: mIgG2a Fc
T8 sequence (P09793 36-161): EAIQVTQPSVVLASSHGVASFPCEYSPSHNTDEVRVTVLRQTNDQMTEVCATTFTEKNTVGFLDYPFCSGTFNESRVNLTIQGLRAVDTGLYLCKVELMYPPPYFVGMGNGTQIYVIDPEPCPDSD
Procedure: as §2

B7-1-hIgG1-biotin [8] = molecular target: T9, B7-1-hIgG1-biotin (human, UniProt P33681 35-233, biotin on the AVI tag (BirA)); assay: p75-mIgG2A titrated on streptavidin beads coated with B7-1-hIgG1-biotin; anti-mIgG2A, flow cytometry
T9 construct: Loaded on streptavidin beads; the paragraph gives residues only; also called B7-1-Fc-biotin; hB7-1 (residues 35-233) hIgG1-His10-AVI; not shown: C-terminal 10xHis and AVI tagged hIgG1 Fc domain
T9 chain: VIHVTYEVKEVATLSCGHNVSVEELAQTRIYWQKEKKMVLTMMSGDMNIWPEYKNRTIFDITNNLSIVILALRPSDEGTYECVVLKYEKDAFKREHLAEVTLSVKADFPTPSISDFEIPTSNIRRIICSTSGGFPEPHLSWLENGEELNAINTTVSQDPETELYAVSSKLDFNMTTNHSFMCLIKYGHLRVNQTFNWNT
Excerpt: (§3) Binding was detected by flow cytometry on a SONY Spectral Analyzer (SA 3800). Binding curves were fit using the equation Y=Bmax*Xh/(Kdh+Xh).

B7-1-hIgG1-biotin [9] = molecular target: T9, B7-1-hIgG1-biotin; assay: Fc fusions titrated on streptavidin beads coated with B7-1-hIgG1-biotin, flow cytometry
Excerpt: as §3

[10] = molecular target: T6, human B7-1 (CD80), full length, …; assay: cell-cell screen, flow cytometry
Procedure: as §1

| Molecule | percent binding (human B7-1 N82E on cells) | percent binding [1] | percent binding (human B7-1 R63D on cells) | percent binding [2] | percent binding [3] | other results |
| --- | --- | --- | --- | --- | --- | --- |
| human p75NTR mutant printed ARG166H on cells (from UniProt P08138 29-427) (receptor) | 25% | 26% | 8% | 12% | 26% | percent binding [4]: 66% |
| B1 | 25% | 21% | 30% | 20% | 26% | percent binding [5]: 100%; binding result [6]: binds |
| B2 |  |  |  |  |  | binding result [7]: no binding |
| B3 |  |  |  |  |  | binding result (p75NTR-mIgG2a): binds; binding result (mouse CTLA-4-mIgG2a): binds |
| B4 |  |  |  |  |  | EC50 (B7-1-hIgG1-biotin [8]): 16 nM; fold higher EC50 than B7-1:CTLA-4 (B7-1-hIgG1-biotin [9]): ~30 fold |
| B5 |  |  |  |  |  | binding result [10]: no binding |
